Data from paper PMC2953525, “Subtle Alterations in PCNA-Partner Interactions Severely Impair DNA Replication and Repair” (PLoS Biology, 2010).
Values belong to the binder of their own block, whether it stands above or below them.

Tests used:
pol30-79 (yeast), P15873 = target: T1, pol30-79 (yeast), P15873; test: two-hybrid; quantitative Y2H: generation time of the YRG2 strains in liquid SC-Leu-Trp-His, given relative to cells expressing WT PCNA; average of at least 3 experiments; details: remark: other sources report otherwise
T1 chain: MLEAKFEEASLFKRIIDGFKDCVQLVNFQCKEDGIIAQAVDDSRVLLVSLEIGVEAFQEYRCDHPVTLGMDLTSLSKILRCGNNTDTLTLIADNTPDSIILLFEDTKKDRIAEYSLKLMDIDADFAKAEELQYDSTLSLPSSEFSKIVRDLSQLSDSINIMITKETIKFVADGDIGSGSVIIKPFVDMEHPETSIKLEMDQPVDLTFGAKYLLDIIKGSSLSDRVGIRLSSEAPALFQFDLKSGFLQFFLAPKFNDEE

[1] = target: T2, pol30-Rad30E2 of the mutant strain (yeast, UniProt P15873 1-258, IDCL DIDADFLKIEEL to DDDWDFLKILEL); test: ELISA; PCNA captured from crude yeast extract (3 mg/ml) on plates coated with anti-PCNA antibody; bound GFP-tagged partner detected by anti-GFP, normalised to the anti-His signal of PCNA; details: partners not purified
T2 construct: PCNA (POL30), yeast; source: yeast, sole source of PCNA under the native POL30 promoter, in crude cell extract
T2 sequence: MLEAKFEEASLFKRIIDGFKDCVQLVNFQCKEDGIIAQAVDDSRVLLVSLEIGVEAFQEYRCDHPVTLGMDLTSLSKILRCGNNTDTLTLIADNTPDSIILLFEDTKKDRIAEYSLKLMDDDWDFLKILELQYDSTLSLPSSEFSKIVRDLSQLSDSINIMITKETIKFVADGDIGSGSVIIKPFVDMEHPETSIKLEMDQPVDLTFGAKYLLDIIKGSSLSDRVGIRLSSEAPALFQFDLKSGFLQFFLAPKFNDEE

pol30-Rad30E9 = target: T3, pol30-Rad30E9 (yeast, UniProt P15873 1-258, IDCL DIDADFLKIEEL to DNDWDFLKIDEL); test: two-hybrid; quantitative Y2H: generation time of the YRG2 strains in liquid SC-Leu-Trp-His, given relative to cells expressing WT PCNA; average of at least 3 experiments; details: partners not purified
T3 construct: PCNA (POL30), yeast; also called Pol30-Rad30E9p; source: yeast two-hybrid fusion (pAD-GAL4, strain YRG2)
T3 sequence: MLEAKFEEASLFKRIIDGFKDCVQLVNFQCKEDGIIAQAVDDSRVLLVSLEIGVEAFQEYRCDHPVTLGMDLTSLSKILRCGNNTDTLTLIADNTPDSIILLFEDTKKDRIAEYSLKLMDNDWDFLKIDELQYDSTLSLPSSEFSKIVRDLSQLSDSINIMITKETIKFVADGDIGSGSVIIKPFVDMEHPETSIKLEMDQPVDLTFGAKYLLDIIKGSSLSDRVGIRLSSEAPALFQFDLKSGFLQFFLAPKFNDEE

pol30-Rad30E2 = target: T4, pol30-Rad30E2 (yeast, UniProt P15873 1-258, IDCL DIDADFLKIEEL to DDDWDFLKILEL); test: as above; details: partners not purified
T4 construct: PCNA (POL30), yeast; source: yeast two-hybrid fusion (pAD-GAL4, strain YRG2)
T4 sequence: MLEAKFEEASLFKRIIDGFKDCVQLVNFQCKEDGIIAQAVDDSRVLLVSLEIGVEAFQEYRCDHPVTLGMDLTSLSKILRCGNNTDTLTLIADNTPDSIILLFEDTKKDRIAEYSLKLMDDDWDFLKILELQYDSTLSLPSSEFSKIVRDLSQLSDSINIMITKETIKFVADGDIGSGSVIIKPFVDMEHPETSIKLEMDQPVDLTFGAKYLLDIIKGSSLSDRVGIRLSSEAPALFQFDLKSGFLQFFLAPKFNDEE

pol30-Rad27L2 = target: T5, pol30-Rad27L2 (yeast, UniProt P15873 1-258, IDCL DIDADFLKIEEL to D––VDTLKITEL); test: two-hybrid; pAD-GAL4-PCNA WT or mutant (called bait) and pBD-GAL4-partner (called prey) in strain YRG2; 10-fold serial dilutions spotted on SC-Leu-Trp-His plates, 30°C, 3 d; growth similar to WT PCNA is denoted 1; details: partners not purified
T5 construct: PCNA (POL30), yeast; two residues after the first aspartic acid of the IDCL are deleted; source: yeast two-hybrid fusion (pAD-GAL4, strain YRG2)
T5 sequence: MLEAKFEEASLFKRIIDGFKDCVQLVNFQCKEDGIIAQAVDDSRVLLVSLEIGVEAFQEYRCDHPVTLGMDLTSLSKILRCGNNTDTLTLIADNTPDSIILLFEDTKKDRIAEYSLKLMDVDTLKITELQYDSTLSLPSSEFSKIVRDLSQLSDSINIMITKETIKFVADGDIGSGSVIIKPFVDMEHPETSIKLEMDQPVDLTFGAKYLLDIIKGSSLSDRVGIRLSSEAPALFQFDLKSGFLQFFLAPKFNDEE

pol30-Rad27L1 = target: T6, pol30-Rad27L1 (yeast, UniProt P15873 1-258, IDCL DIDADFLKIEEL to D––VDILKIGEL); test: as above; details: partners not purified
T6 construct: PCNA (POL30), yeast; two residues after the first aspartic acid of the IDCL are deleted; source: yeast two-hybrid fusion (pAD-GAL4, strain YRG2)
T6 sequence: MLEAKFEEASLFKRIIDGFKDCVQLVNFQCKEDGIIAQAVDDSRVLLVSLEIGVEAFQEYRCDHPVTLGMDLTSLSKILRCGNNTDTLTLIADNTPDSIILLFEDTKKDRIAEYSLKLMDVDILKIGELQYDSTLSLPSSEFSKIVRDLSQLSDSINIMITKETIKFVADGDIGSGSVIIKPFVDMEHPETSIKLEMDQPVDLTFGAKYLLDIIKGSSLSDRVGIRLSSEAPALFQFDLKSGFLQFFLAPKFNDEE

[2] = target: the molecule itself; test: SEC; Superdex 200 10/300 GL, activity buffer (300 mM NaCl, 50 mM Tris-HCl, pH 8), monomer concentrations of 3–8 µM
[3] = target: T7, pol30-Rad27E6 of the mutant strain (yeast, UniProt P15873 1-258, IDCL DIDADFLKIEEL to DGDYDILKIREL); test: ELISA; PCNA captured from crude yeast extract (3 mg/ml) on plates coated with anti-PCNA antibody; bound GFP-tagged partner detected by anti-GFP, normalised to the anti-His signal of PCNA; details: partners not purified
T7 construct: PCNA (POL30), yeast; source: yeast, sole source of PCNA under the native POL30 promoter, in crude cell extract
T7 sequence: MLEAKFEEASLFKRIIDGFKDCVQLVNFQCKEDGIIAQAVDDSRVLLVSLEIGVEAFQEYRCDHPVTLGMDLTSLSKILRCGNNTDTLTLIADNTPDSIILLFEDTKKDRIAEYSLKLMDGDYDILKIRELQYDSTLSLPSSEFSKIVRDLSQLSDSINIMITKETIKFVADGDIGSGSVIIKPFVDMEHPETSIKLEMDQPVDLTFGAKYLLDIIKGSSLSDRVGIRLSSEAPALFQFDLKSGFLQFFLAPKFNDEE

fold change in affinity relative to WT PCNA (Y2H generation time) (pol30-79 (yeast), P15873): 0.4 fold
B1: Rad30, Q04049 1-632 (natural protein)
chain: MSKFTWKELIQLGSPSKAYESSLACIAHIDMNAFFAQVEQMRCGLSKEDPVVCVQWNSIIAVSYAARKYGISRMDTIQEALKKCSNLIPIHTAVFKKGEDFWQYHDGCGSWVQDPAKQISVEDHKVSLEPYRRESRKALKIFKSACDLVERASIDEVFLDLGRICFNMLMFDNEYELTGDLKLKDALSNIREAFIGGNYDINSHLPLIPEKIKSLKFEGDVFNPEGRDLITDWDDVILALGSQVCKGIRDSIKDILGYTTSCGLSSTKNVCKLASNYKKPDAQTIVKNDCLLDFLDCGKFEITSFWTLGGVLGKELIDVLDLPHENSIKHIRETWPDNAGQLKEFLDAKVKQSDYDRSTSNIDPLKTADLAEKLFKLSRGRYGLPLSSRPVVKSMMSNKNLRGKSCNSIVDCISWLEVFCAELTSRIQDLEQEYNKIVIPRTVSISLKTKSYEVYRKSGPVAYKGINFQSHELLKVGIKFVTDLDIKGKNKSYYPLTKLSMTITNFDIIDLQKTVVDMFGNQVHTFKSSAGKEDEEKTTSSKADEKTPKLECCKYQVTFTDQKALQEHADYHLALKLSEGLNGAEESSKNLSFGEKRLLFSRKRPNSQHTATPQKKQVTSSKNILSFFTRKK

increase in the amount of complex relative to the POL30 strain [1]: 70%
B2: GFP-tagged Rad30 (natural protein, yeast, UniProt Q04049 1-632, looked up)
chain: MSKFTWKELIQLGSPSKAYESSLACIAHIDMNAFFAQVEQMRCGLSKEDPVVCVQWNSIIAVSYAARKYGISRMDTIQEALKKCSNLIPIHTAVFKKGEDFWQYHDGCGSWVQDPAKQISVEDHKVSLEPYRRESRKALKIFKSACDLVERASIDEVFLDLGRICFNMLMFDNEYELTGDLKLKDALSNIREAFIGGNYDINSHLPLIPEKIKSLKFEGDVFNPEGRDLITDWDDVILALGSQVCKGIRDSIKDILGYTTSCGLSSTKNVCKLASNYKKPDAQTIVKNDCLLDFLDCGKFEITSFWTLGGVLGKELIDVLDLPHENSIKHIRETWPDNAGQLKEFLDAKVKQSDYDRSTSNIDPLKTADLAEKLFKLSRGRYGLPLSSRPVVKSMMSNKNLRGKSCNSIVDCISWLEVFCAELTSRIQDLEQEYNKIVIPRTVSISLKTKSYEVYRKSGPVAYKGINFQSHELLKVGIKFVTDLDIKGKNKSYYPLTKLSMTITNFDIIDLQKTVVDMFGNQVHTFKSSAGKEDEEKTTSSKADEKTPKLECCKYQVTFTDQKALQEHADYHLALKLSEGLNGAEESSKNLSFGEKRLLFSRKRPNSQHTATPQKKQVTSSKNILSFFTRKK
notes: Rad30, yeast, tagged at its natural locus; source: yeast, GFP-tagged at the natural locus, in crude cell extract; not shown: GFP, C-terminal, kept

fold change in affinity relative to WT PCNA (Y2H generation time) (pol30-Rad30E9): 1.6 fold | fold change in affinity relative to WT PCNA (Y2H generation time) (pol30-Rad30E2): 1.4 fold | fold change in affinity relative to WT PCNA (Y2H) (pol30-Rad27L2): 0.5 fold | fold change in affinity relative to WT PCNA (Y2H) (pol30-Rad27L1): 0.4 fold
B3: Rad30 (natural protein, yeast, UniProt Q04049 1-632, looked up)
chain: MSKFTWKELIQLGSPSKAYESSLACIAHIDMNAFFAQVEQMRCGLSKEDPVVCVQWNSIIAVSYAARKYGISRMDTIQEALKKCSNLIPIHTAVFKKGEDFWQYHDGCGSWVQDPAKQISVEDHKVSLEPYRRESRKALKIFKSACDLVERASIDEVFLDLGRICFNMLMFDNEYELTGDLKLKDALSNIREAFIGGNYDINSHLPLIPEKIKSLKFEGDVFNPEGRDLITDWDDVILALGSQVCKGIRDSIKDILGYTTSCGLSSTKNVCKLASNYKKPDAQTIVKNDCLLDFLDCGKFEITSFWTLGGVLGKELIDVLDLPHENSIKHIRETWPDNAGQLKEFLDAKVKQSDYDRSTSNIDPLKTADLAEKLFKLSRGRYGLPLSSRPVVKSMMSNKNLRGKSCNSIVDCISWLEVFCAELTSRIQDLEQEYNKIVIPRTVSISLKTKSYEVYRKSGPVAYKGINFQSHELLKVGIKFVTDLDIKGKNKSYYPLTKLSMTITNFDIIDLQKTVVDMFGNQVHTFKSSAGKEDEEKTTSSKADEKTPKLECCKYQVTFTDQKALQEHADYHLALKLSEGLNGAEESSKNLSFGEKRLLFSRKRPNSQHTATPQKKQVTSSKNILSFFTRKK
notes: Rad30 (DNA polymerase), yeast; also called pBD-Rad30; source: yeast two-hybrid fusion (pBD-GAL4, strain YRG2)

B4: proliferating cell nuclear antigen (PCNA), 6×Histidine-tagged (natural protein, yeast)
chain: MLEAKFEEASLFKRIIDGFKDCVQLVNFQCKEDGIIAQAVDDSRVLLVSLEIGVEAFQEYRCDHPVTLGMDLTSLSKILRCGNNTDTLTLIADNTPDSIILLFEDTKKDRIAEYSLKLMDIDADFLKIEELQYDSTLSLPSSEFSKIVRDLSQLSDSINIMITKETIKFVADGDIGSGSVIIKPFVDMEHPETSIKLEMDQPVDLTFGAKYLLDIIKGSSLSDRVGIRLSSEAPALFQFDLKSGFLQFFLAPKFNDEE
notes: PCNA (POL30), yeast; cloned into pET28 by NdeI and XhoI; also called WT PCNA; Pol30p; source: E. coli BL21, purified (Ni-NTA)
stoichiometry N [2]: 3

increase in the amount of complex relative to the POL30 strain [3]: 17%
B5: GFP-tagged Rad27 (natural protein, yeast, UniProt P26793 1-382, looked up)
chain: MGIKGLNAIISEHVPSAIRKSDIKSFFGRKVAIDASMSLYQFLIAVRQQDGGQLTNEAGETTSHLMGMFYRTLRMIDNGIKPCYVFDGKPPDLKSHELTKRSSRRVETEKKLAEATTELEKMKQERRLVKVSKEHNEEAQKLLGLMGIPYIIAPTEAEAQCAELAKKGKVYAAASEDMDTLCYRTPFLLRHLTFSEAKKEPIHEIDTELVLRGLDLTIEQFVDLCIMLGCDYCESIRGVGPVTALKLIKTHGSIEKIVEFIESGESNNTKWKIPEDWPYKQARMLFLDPEVIDGNEINLKWSPPKEKELIEYLCDDKKFSEERVKSGISRLKKGLKSGIQGRLDGFFQVVPKTKEQLAAAAKRAQENKKLNKNKNKVTKGRR
notes: Rad27, yeast, tagged at its natural locus; source: yeast, GFP-tagged at the natural locus, in crude cell extract; not shown: GFP, C-terminal, kept
